Experimental data taken from article doi:10.1101/2021.04.01.438122.

Target: human Angiotensin Converting Enzyme 2 (amino acids 19-615) fused to human IgG Fc (human) (UniProt Q9BYF1)
Test: SPR

“SARS-CoV-2 receptor binding domain (RBD amino acids 330-532) with the Y489R mutation (domain or fragment)” gave a reduction of binding against RBD-WT of 94%.
